Laboratory results from PMC5175494.

What was measured:
[1] = molecular target: human cardiac T53C-IAANS TnC (human) (UniProt P63316); assay: stopped-flow fluorescence; apparent; 1 uM TnC T53C-IAANS with saturating Ca2+ and increasing concentrations of TnI128-180, Ca2+ removed with 10 mM EGTA; rate of Ca2+ dissociation followed by IAANS fluorescence; 15°C; 10 mM MOPS, 150 mM KCl, pH 7.0
Troponin C = Troponin C (UniProt P63316); conditions: cited from earlier work

Row | Substance | Kd [1] [nM] | Kd (Troponin C) [nM]
1 | TnI_(128−180) peptide (from UniProt P19429 128-180) | 3000 | –
2 | Troponin I (from UniProt P19429) | – | 1200
